T1: mouse ROBO4 (pCI-mROBO4-transfected HEK293 cells) (mouse, UniProt Q8C310 28-1012)
T1 sequence: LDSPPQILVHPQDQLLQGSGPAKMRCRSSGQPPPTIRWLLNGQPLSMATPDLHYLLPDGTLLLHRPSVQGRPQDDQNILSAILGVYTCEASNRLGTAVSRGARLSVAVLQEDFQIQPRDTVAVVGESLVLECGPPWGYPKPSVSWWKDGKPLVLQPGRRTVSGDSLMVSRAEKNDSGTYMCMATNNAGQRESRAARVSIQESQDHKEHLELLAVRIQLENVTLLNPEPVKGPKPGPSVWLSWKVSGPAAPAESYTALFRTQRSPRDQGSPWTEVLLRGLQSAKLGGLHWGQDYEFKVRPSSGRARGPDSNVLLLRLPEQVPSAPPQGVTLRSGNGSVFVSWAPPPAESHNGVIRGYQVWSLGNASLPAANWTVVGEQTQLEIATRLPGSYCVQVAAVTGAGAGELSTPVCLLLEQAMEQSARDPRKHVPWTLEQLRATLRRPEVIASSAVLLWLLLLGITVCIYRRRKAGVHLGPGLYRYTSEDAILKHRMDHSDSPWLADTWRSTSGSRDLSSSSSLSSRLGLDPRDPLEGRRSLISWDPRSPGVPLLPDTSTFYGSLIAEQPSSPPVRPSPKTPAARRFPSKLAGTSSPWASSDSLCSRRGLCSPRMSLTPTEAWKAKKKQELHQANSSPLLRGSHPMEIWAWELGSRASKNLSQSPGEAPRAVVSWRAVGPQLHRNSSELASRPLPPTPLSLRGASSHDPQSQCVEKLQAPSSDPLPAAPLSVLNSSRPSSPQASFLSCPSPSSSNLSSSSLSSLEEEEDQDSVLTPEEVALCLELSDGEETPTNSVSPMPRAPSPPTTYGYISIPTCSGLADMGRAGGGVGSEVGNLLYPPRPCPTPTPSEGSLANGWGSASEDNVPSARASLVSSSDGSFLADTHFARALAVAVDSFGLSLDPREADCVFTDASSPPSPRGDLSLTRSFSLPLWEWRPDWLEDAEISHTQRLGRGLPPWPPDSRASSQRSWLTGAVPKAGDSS

T2: N-terminal FLAG-tagged cynomolgus monkey ROBO4, cynoROBO4-1 (pCI-FLAG-cynoROBO4-1) (cynomolgus monkey, UniProt Q8WZ75 28-1007 (human entry))
T2 chain: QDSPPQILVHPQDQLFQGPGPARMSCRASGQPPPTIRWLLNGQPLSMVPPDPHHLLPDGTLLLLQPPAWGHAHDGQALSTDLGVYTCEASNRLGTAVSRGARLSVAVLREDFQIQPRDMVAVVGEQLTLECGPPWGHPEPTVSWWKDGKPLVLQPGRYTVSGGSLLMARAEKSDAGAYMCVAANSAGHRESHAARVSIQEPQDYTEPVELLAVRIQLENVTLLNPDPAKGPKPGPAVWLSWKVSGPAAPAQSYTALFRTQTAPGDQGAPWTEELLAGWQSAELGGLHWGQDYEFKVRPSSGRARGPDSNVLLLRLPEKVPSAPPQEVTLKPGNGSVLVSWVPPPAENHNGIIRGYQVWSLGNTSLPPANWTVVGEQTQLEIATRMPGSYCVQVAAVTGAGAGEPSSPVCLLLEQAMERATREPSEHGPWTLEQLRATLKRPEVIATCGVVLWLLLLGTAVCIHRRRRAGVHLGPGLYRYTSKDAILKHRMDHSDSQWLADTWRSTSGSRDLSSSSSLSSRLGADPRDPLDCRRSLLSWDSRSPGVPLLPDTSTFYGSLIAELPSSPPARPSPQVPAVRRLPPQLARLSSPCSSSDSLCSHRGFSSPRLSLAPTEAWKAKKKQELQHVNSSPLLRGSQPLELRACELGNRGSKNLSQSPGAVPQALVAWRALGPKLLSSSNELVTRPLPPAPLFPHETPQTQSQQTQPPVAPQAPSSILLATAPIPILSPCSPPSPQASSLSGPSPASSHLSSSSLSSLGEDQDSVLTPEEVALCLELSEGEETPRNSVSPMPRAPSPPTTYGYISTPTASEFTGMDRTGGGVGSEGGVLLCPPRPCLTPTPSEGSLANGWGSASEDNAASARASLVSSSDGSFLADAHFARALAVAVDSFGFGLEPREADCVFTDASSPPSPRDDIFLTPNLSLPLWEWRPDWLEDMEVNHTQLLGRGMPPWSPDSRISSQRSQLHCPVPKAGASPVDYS


Assays:
[1] = biological target: T1, mouse ROBO4 (pCI-mROBO4-transfected …); assay: flow cytometry, HEK293 cells transfected with pCI-mROBO4, anti-mouse IgG FITC; control histogram IgG (Mouse IgG2a)
Method: (§1) HEK293 cells were inoculated at a concentration of 1.5×10⁶ cells/dish to a 60-mm dish (manufactured by Corning Inc.) and cultured overnight in a DMEM medium containing 10% FBS at 37° C. under 5% CO₂ conditions. On the next day, the HEK293 cells were transfected with pCI-hROBO4, pCI-mROBO4, pCI-raROBO4, pCI-FLAG-cynoROBO4-1, pCI-FLAG-cynoROBO4-2, pCI-hROBO1, pCI-hROBO2, or pCI-hROBO3 using FuGENE6 Transfection Reagent and further cultured overnight at 37° C. under 5% CO₂ conditions. On the next day, the expression vector-transfected cells were treated with TrypLE Express (manufactured by Life Technologies Corp.), washed with PBS containing 5% FBS, and then suspended in PBS containing 5% FBS. The obtained cell suspension was used in flow cytometry analysis.
(§2) Each cell suspension prepared in 4)-3-1 was centrifuged, and the supernatant was removed. Then, MAb1 or a negative control Mouse IgG2a was added at a concentration of 10 μg/mL to 2×10⁵ expression vector-transfected cells, and the resulting suspension was left standing at 4° C. for 1 hour. […] Data was analyzed using Flowjo. The histogram of FITC fluorescence intensity was prepared. The antibody was determined to bind in a cross-species manner when the histogram of MAb1 was shifted to a stronger fluorescence intensity region compared with the histogram of the negative control Mouse IgG2a.

[2] = biological target: T2, N-terminal FLAG-tagged cynomolgus …; assay: flow cytometry, HEK293 cells transfected with pCI-FLAG-cynoROBO4-1, antibody at 10 µg/mL, anti-mouse IgG FITC; control histogram IgG (Mouse IgG2a)
Method: as §1, §2

[3] = biological target: T1, mouse ROBO4 (pCI-mROBO4-transfected …); assay: flow cytometry (FC500), HEK293 cells transfected with pCI-mROBO4, FITC goat anti-human IgG Fc; control histogram IgG (human IgG)

Row | Binder | binding result [1] | binding result [2] | binding result [3]
1 | anti-ROBO4 mouse monoclonal antibody MAb1 (antibody, mouse IgG1, V domains shown, Mouse IgG1 (gamma1), kappa light chain, purified from hybridoma supernatant; also called parent antibody MAb1) VH: EVQLVESGGGLVKPGGSLKLSCAASGFTFSTYAMSWVRQTPEKRLEWVATISNGGTYTYYPDSVKGRFTISRDNAENTLYLQMSSLRSEDTAMYFCARLIYYDYLDYWGHGTTLTVSS VL: DAVMTQTPLSLPVSLGDQASISCRSSQSLENSNGNTYLNWYFQKPGQSPQLLIYRVSNRFSGVLDRFSGSGSGTDFTLKISRVEAEDFGVYFCLQVTHVPWTFGGGTKLEIKR | no binding (tested: 10 µg/mL) | binds | –
2 | humanized MAb1 antibody H-1143 (antibody, human IgG2, kappa, V domains shown, Human IgG2 / kappa constant regions; also called hMAb1-H2-type heavy chain + hMAb1-L2-type light chain) VH: EVQLVESGGGLVQPGGSLRLSCAASGFTFSTYAMSWVRQAPGKGLEWVATISQGGTYTYYPDSVKGRFTISRDNAKNTLYLQMNSLRAEDTAVYYCARLIYYDYLDYWGQGTLVTVSS VL: DIVMTQSPLSLPVTLGEPASISCRSSQSLENENKNLYLNWYLQKPGQSPQLLIYRVSNRFSGVPDRFSGSGSGTDFTLKISRVEAEDVGVYYCLQVTHVPWTFGPGTKVDIKR | – | – | no binding (tested: 10 µg/mL)

From US20150098945A1 (Daiichi Sankyo, published 2015)
